Key:
[1] = molecular target: T1, human FAPα-His tag (Sino biological) (human, UniProt Q12884 26-760); experiment: competitive ELISA on coated human FAPα; competitor (detected): FAP-I38-Bio
T1 construct: Bought protein; also called human FAPα-His protein; not shown: His tag
T1 sequence (looked up): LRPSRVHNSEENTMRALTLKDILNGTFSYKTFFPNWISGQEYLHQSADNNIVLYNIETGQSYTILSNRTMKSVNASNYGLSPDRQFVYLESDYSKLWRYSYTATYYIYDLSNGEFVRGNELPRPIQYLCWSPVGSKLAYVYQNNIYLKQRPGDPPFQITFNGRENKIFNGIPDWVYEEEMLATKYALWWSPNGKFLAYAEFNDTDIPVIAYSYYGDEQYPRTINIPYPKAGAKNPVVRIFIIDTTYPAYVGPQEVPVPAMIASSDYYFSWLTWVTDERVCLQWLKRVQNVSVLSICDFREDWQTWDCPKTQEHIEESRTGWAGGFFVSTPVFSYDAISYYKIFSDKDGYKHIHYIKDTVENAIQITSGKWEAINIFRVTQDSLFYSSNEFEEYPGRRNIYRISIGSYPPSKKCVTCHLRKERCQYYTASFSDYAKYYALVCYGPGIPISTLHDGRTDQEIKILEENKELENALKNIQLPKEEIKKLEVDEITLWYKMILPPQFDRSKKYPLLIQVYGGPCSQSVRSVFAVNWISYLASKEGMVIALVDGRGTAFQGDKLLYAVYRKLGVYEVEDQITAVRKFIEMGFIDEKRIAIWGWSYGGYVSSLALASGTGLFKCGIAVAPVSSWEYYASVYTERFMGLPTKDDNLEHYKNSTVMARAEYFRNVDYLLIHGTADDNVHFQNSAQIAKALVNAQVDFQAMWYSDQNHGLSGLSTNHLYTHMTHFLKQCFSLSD
Experimental: (§1) Briefly, microtiter plates were coated with human FAPα proteins at 0.5 μg/ml in PBS, 100 μl/well at 4° C. overnight, then blocked with 150 μl/well of 1% BSA. Serial dilutions of chimeric antibodies as well as biotin-conjugated reference mAb were added to each well and incubated for 1 hour at RT. The plates were washed with PBS/Tween and then incubate with streptavidin-HRP for 15 mins at RT. After washing, the plates were developed with TMB substrate and analyzed by spectrophotometer at OD 450 nm. According to the competition ability to reference mAbs (Benchmark, or “BMK”), all tested FAPα mAbs binds to the similar epitope as shown in Table 5.

[2] = molecular target: T1, human FAPα-His tag (Sino biological); experiment: competitive ELISA on coated human FAPα; competitor (detected): FAP-G14-Bio
Experimental: (§2) Competitive ELISA was carried out to classify the FAPα mAbs based on the binding epitope to human FAPα.
as §1

[3] = molecular target: T1, human FAPα-His tag (Sino biological); experiment: ELISA, coated human FAPα-His
Experimental: Briefly, microtiter plates were coated with human FAPα-His protein at 0.5 ug/ml in PBS, 100 μl/well at 4° C. overnight, then blocked with 150 μl/well of 1% BSA. Three-fold dilutions of tested antibodies starting from 1 μg/ml were added to each well and incubated for 1 hour at 37° C. The plates were washed with PBS/Tween and then incubated with Anti-Human IgG (H&L) (GOAT) Antibody Peroxidase Conjugated for 30 mins at 37° C. After washing, the plates were developed with TMB substrate and analyzed by spectrophotometer at OD 450 nm. […] FAP-4B9 clone from Roche was served as positive control which labeled as FAPα-BMK.

[4] = molecular target: T1, human FAPα-His tag (Sino biological); experiment: competitive ELISA on coated human FAPα; competitor (detected): FAPα (BMK)-Bio
Experimental: as §1

[5] = molecular target: T2, human FAPα on CHO-K1-hFAPα cells (human, UniProt Q12884 1-760); experiment: flow cytometry on CHO-K1-hFAPα cells (MFI of PE); design: unit not given beside the values
T2 construct: whole, on cells; also called cell-surface FAPα
T2 sequence (looked up): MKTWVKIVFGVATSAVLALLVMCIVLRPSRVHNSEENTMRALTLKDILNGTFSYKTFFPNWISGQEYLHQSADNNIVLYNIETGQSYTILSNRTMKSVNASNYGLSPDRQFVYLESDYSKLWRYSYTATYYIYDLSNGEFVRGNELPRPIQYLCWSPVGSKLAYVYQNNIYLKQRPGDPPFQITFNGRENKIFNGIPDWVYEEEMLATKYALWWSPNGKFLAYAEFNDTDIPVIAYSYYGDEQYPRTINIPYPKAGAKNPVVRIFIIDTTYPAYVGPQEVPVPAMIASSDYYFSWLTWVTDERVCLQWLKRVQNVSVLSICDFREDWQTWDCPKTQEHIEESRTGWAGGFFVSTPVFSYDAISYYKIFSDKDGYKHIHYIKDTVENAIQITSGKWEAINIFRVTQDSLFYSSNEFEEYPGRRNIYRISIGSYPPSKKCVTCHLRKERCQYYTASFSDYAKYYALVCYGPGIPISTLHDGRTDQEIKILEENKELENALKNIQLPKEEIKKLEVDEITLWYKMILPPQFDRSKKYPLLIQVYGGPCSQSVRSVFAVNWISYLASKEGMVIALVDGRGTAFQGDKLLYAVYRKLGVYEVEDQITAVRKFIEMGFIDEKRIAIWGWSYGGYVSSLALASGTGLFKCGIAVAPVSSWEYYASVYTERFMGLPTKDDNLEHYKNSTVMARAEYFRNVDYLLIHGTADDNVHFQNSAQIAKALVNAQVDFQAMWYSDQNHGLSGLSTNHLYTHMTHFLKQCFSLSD
Experimental: To evaluate the cell-based binding property to human FAPα, the tested antibodies were analyzed for their binding to CHO-K1-hFAPα by FACS. A total number of 1×10⁵ CHO-K1-hFAPα cells in each well were incubated with 4-fold serial diluted antibodies starting from 3 μg/ml for 30 minutes at 4° C. in FACS buffer. After wash by FACS buffer, PE conjugated-anti-human IgG antibody was added to each well and incubated at 4° C. for 30 minutes. After wash, MFI of PE was evaluated by MACSQuant Analyzer 16.

[6] = molecular target: T1, human FAPα-His tag (Sino biological); experiment: competitive ELISA on coated human FAPα; competitor (detected): FAP-J40-Bio
Experimental: as §1

[7] = molecular target: T1, human FAPα-His tag (Sino biological); experiment: competitive ELISA on coated human FAPα; competitor (detected): FAP-I37-Bio
Experimental: as §2, §1

Row | Binder | OD 450 nm [1] [OD 450 nm] | OD 450 nm [2] [OD 450 nm] | EC50 [3] [ng/mL] | OD 450 nm [4] [OD 450 nm] | Cmax [5] | OD 450 nm [6] [OD 450 nm] | OD 450 nm [7] [OD 450 nm]
1 | G14 (antibody, V domains shown, Full human antibody from a Fab phage library; Tested as a mAb (detected with anti-human IgG, captured on Protein A); also called FAP-G14; FAP-G14-Bio (biotin-conjugated form)) VH: QVQLLESGGGVVQPGRSLRLSCAASGFTFSSYAMHWVRQAPGKGLEWVAFISHDGNRNSYADSVRGRFTISRDNSKNTLYLQMNSLRAEDTAVYYCARDLGYYNGFSYWGQGTLVTVSA VL: DIVMTQSPSSVSASVGDRVTITCRASQGISSWLAWYQQKPGKAPKLLIYAASSLQSGVPSRFSGSGSGTDFTLTISSLQPEDFATYYCQQANSFPPTFGPGTKVDIK | 0.658 | 0.209 | 4.64 | 0.399 | 515 | 0.293 | 0.457
2 | J40 (antibody, V domains shown, Tested as a mAb; also called FAP-J40; FAP-J40-Bio (biotin-conjugated form)) VH: EVQLLESGGGLVQPGGSLRLSCAASGFTFSSYAMSWVRQAPGKGLEWVSAISGSGGSTYYADSVKGRFTISRDNSKNTLYLQMNSLRTDDTAVYYCARDLTTSTGWESWGQGTLVTVSA VL: NIQMTQSPSSVSASVGDRVTITCRASQGISSWLAWYQQKPGKAPKLLIYAASSLQSGVPSRFSGSGSGTDFTLTISSLQPEDFATYYCQQANSFPPTFGQGTKLEIK | 0.527 | 0.167 | 3.87 | 0.343 | 381 | 0.261 | 0.435
3 | I30 (antibody, V domains shown, Tested as a mAb; also called 130; FAP-I30) VH: not shown VL: AIRLTQSPSSVSASVGDRVTITCRASQGISSWLAWYQQKPGKAPKLLIYAASSLQSGVPSRFSGSGSGTDFTLTISSLQPEDFATYYCQQANSFPPTFGGGTKVEIK | 0.324 | 0.129 | 3.42 | 0.151 | 455 | 0.16 | 0.219
4 | I37 (antibody, V domains shown, Tested as a mAb; also called FAP-I37) VH: QLQLVESGGGLVQPGGSLRLSCAASGFTFSSYAMSWVRQAPGKGLEWVSAISGSGGSTYYADSVKGRFTISRDNSKNTLYLQMNSLRAEDTAVYYCARDKPWGGSFDYWGQGTLVTVSA VL: DIQLTQSPSSLSASVGDRVTITCRASQGISSWLAWYQQKPGKAPKLLIYAASSLQSGVPSRFSGSGSGTDFTLTISSLQPEDFATYYCQQANSFPVTFGPGTKVDIK | 0.703 | 0.224 | 5.4 | 0.46 | 465 | 0.314 | 0.602

— patent publication US20250297032A1 (CONCEPT TO MEDICINE BIOTECH, published 2025)
